Assay results from PMC3567212 (Biochemistry, 2012).

Assays:
AUC [1] = target: the molecule itself; assay: AUC
AUC [2] = target: the molecule itself; assay: AUC; remark: listed apart in the source

B1: Rhizobium etli pyruvate carboxylase R472S (enzyme, UniProt Q2K340 1-1154, looked up)
chain: MPISKILVANRSEIAIRVFRAANELGIKTVAIWAEEDKLALHRFKADESYQVGRGPHLARDLGPIESYLSIDEVIRVAKLSGADAIHPGYGLLSESPEFVDACNKAGIIFIGPKADTMRQLGNKVAARNLAISVGVPVVPATEPLPDDMAEVAKMAAAIGYPVMLKASWGGGGRGMRVIRSEADLAKEVTEAKREAMAAFGKDEVYLEKLVERARHVESQILGDTHGNVVHLFERDCSVQRRNQKVVERAPAPYLSEAQRQELAAYSLKIAGATNYIGAGTVEYLMDADTGKFYFIEVNPRIQVEHTVTEVVTGIDIVKAQIHILDGAAIGTPQSGVPNQEDIRLNGHALQCRVTTEDPEHNFIPDYGRITAYRSASGFGIRLDGGTSYSGAIITRYYDPLLVKVTAWAPNPLEAISRMDRALREFRIRGVATNLTFLEAIIGHPKFRDNSYTTRFIDTTPELFQQVKRQDSATKLLTYLADVTVNGHPEAKDRPKPLENAARPVVPYANGNGVKDGTKQLLDTLGPKKFGEWMRNEKRVLLTDTTMRDGHQSLLATRMRTYDIARIAGTYSHALPNLLSLECWGGATFDVSMRFLTEDPWERLALIREGAPNLLLQMLLRGANGVGYTNYPDNVVKYFVRQAAKGGIDLFRVFDCLNWVENMRVSMDAIAEENKLCEAAICYTGDILNSARPKYDLKYYTNLAVELEKAGAHIIAVKDMAGLLKPAAAKVLFKALREATGLPIHFHTHDTSGIAAATVLAAVEAGVDAVDAAMDALSGNTSQPCLGSIVEALSGSERDPGLDPAWIRRISFYWEAVRNQYAAFESDLKGPASEVYLHEMPGGQFTNLKEQARSLGLETRWHQVAQAYADANQMFGDIVKVTPSSKVVGDMALMMVSQDLTVADVVSPDREVSFPESVVSMLKGDLGQPPSGWPEALQKKALKGEKPYTVRPGSLLKEADLDAERKVIEKKLEREVSDFEFASYLMYPKVFTDFALASDTYGPVSVLPTPAYFYGLADGEELFADIEKGKTLVIVNQAVSATDSQGMVTVFFELNGQPRRIKVPDRAHGATGAAVRRKAEPGNAAHVGAPMPGVISRVFVSSGQAVNAGDVLVSIEAMKMETAIHAEKDGTIAEVLVKAGDQIDAKDLLAVYGG
modifications: covalently attached biotin prosthetic group on the BCCP domain
- stoichiometry N (AUC [1]): 4
- % tetramer (AUC [2]): 72%

B2: Rhizobium etli pyruvate carboxylase R472K (enzyme, UniProt Q2K340 1-1154, looked up)
chain: MPISKILVANRSEIAIRVFRAANELGIKTVAIWAEEDKLALHRFKADESYQVGRGPHLARDLGPIESYLSIDEVIRVAKLSGADAIHPGYGLLSESPEFVDACNKAGIIFIGPKADTMRQLGNKVAARNLAISVGVPVVPATEPLPDDMAEVAKMAAAIGYPVMLKASWGGGGRGMRVIRSEADLAKEVTEAKREAMAAFGKDEVYLEKLVERARHVESQILGDTHGNVVHLFERDCSVQRRNQKVVERAPAPYLSEAQRQELAAYSLKIAGATNYIGAGTVEYLMDADTGKFYFIEVNPRIQVEHTVTEVVTGIDIVKAQIHILDGAAIGTPQSGVPNQEDIRLNGHALQCRVTTEDPEHNFIPDYGRITAYRSASGFGIRLDGGTSYSGAIITRYYDPLLVKVTAWAPNPLEAISRMDRALREFRIRGVATNLTFLEAIIGHPKFRDNSYTTRFIDTTPELFQQVKRQDKATKLLTYLADVTVNGHPEAKDRPKPLENAARPVVPYANGNGVKDGTKQLLDTLGPKKFGEWMRNEKRVLLTDTTMRDGHQSLLATRMRTYDIARIAGTYSHALPNLLSLECWGGATFDVSMRFLTEDPWERLALIREGAPNLLLQMLLRGANGVGYTNYPDNVVKYFVRQAAKGGIDLFRVFDCLNWVENMRVSMDAIAEENKLCEAAICYTGDILNSARPKYDLKYYTNLAVELEKAGAHIIAVKDMAGLLKPAAAKVLFKALREATGLPIHFHTHDTSGIAAATVLAAVEAGVDAVDAAMDALSGNTSQPCLGSIVEALSGSERDPGLDPAWIRRISFYWEAVRNQYAAFESDLKGPASEVYLHEMPGGQFTNLKEQARSLGLETRWHQVAQAYADANQMFGDIVKVTPSSKVVGDMALMMVSQDLTVADVVSPDREVSFPESVVSMLKGDLGQPPSGWPEALQKKALKGEKPYTVRPGSLLKEADLDAERKVIEKKLEREVSDFEFASYLMYPKVFTDFALASDTYGPVSVLPTPAYFYGLADGEELFADIEKGKTLVIVNQAVSATDSQGMVTVFFELNGQPRRIKVPDRAHGATGAAVRRKAEPGNAAHVGAPMPGVISRVFVSSGQAVNAGDVLVSIEAMKMETAIHAEKDGTIAEVLVKAGDQIDAKDLLAVYGG
modifications: covalently attached biotin prosthetic group on the BCCP domain
- stoichiometry N (AUC [1]): 4

B3: Rhizobium etli pyruvate carboxylase R427K (enzyme, UniProt Q2K340 1-1154, looked up)
chain: MPISKILVANRSEIAIRVFRAANELGIKTVAIWAEEDKLALHRFKADESYQVGRGPHLARDLGPIESYLSIDEVIRVAKLSGADAIHPGYGLLSESPEFVDACNKAGIIFIGPKADTMRQLGNKVAARNLAISVGVPVVPATEPLPDDMAEVAKMAAAIGYPVMLKASWGGGGRGMRVIRSEADLAKEVTEAKREAMAAFGKDEVYLEKLVERARHVESQILGDTHGNVVHLFERDCSVQRRNQKVVERAPAPYLSEAQRQELAAYSLKIAGATNYIGAGTVEYLMDADTGKFYFIEVNPRIQVEHTVTEVVTGIDIVKAQIHILDGAAIGTPQSGVPNQEDIRLNGHALQCRVTTEDPEHNFIPDYGRITAYRSASGFGIRLDGGTSYSGAIITRYYDPLLVKVTAWAPNPLEAISRMDRALREFKIRGVATNLTFLEAIIGHPKFRDNSYTTRFIDTTPELFQQVKRQDRATKLLTYLADVTVNGHPEAKDRPKPLENAARPVVPYANGNGVKDGTKQLLDTLGPKKFGEWMRNEKRVLLTDTTMRDGHQSLLATRMRTYDIARIAGTYSHALPNLLSLECWGGATFDVSMRFLTEDPWERLALIREGAPNLLLQMLLRGANGVGYTNYPDNVVKYFVRQAAKGGIDLFRVFDCLNWVENMRVSMDAIAEENKLCEAAICYTGDILNSARPKYDLKYYTNLAVELEKAGAHIIAVKDMAGLLKPAAAKVLFKALREATGLPIHFHTHDTSGIAAATVLAAVEAGVDAVDAAMDALSGNTSQPCLGSIVEALSGSERDPGLDPAWIRRISFYWEAVRNQYAAFESDLKGPASEVYLHEMPGGQFTNLKEQARSLGLETRWHQVAQAYADANQMFGDIVKVTPSSKVVGDMALMMVSQDLTVADVVSPDREVSFPESVVSMLKGDLGQPPSGWPEALQKKALKGEKPYTVRPGSLLKEADLDAERKVIEKKLEREVSDFEFASYLMYPKVFTDFALASDTYGPVSVLPTPAYFYGLADGEELFADIEKGKTLVIVNQAVSATDSQGMVTVFFELNGQPRRIKVPDRAHGATGAAVRRKAEPGNAAHVGAPMPGVISRVFVSSGQAVNAGDVLVSIEAMKMETAIHAEKDGTIAEVLVKAGDQIDAKDLLAVYGG
modifications: covalently attached biotin prosthetic group on the BCCP domain
- stoichiometry N (AUC [1]): 4
- % tetramer (AUC [2]): 75%
